# Biological target: His–CtBP1 (UniProt Q13363)
# Assay: SEC
substance,measurement,value
His–CtBP1 (from UniProt Q13363 1-440) (natural protein),stoichiometry N,2
